Patent publication US20210395381A1 (OSSIANIX, published 2021)

Columns and labels:
recombinant mouse TfR-1 = molecular target: T1, recombinant mouse TfR-1 (mouse, UniProt Q62351 89-763); assay: phage ELISA
T1 construct: Recombinant protein coated at 1 ug/ml in the phage ELISA; also called mTfR1; mouse transferrin receptor-1

recombinant human TfR-1 = molecular target: T2, recombinant human TfR-1 (human, UniProt P02786 89-760); assay: phage ELISA
T2 construct: Recombinant protein coated at 1 ug/ml in the phage ELISA; also called hTfR1; human transferrin receptor-1
T2 sequence (P02786 89-760 limits assumed): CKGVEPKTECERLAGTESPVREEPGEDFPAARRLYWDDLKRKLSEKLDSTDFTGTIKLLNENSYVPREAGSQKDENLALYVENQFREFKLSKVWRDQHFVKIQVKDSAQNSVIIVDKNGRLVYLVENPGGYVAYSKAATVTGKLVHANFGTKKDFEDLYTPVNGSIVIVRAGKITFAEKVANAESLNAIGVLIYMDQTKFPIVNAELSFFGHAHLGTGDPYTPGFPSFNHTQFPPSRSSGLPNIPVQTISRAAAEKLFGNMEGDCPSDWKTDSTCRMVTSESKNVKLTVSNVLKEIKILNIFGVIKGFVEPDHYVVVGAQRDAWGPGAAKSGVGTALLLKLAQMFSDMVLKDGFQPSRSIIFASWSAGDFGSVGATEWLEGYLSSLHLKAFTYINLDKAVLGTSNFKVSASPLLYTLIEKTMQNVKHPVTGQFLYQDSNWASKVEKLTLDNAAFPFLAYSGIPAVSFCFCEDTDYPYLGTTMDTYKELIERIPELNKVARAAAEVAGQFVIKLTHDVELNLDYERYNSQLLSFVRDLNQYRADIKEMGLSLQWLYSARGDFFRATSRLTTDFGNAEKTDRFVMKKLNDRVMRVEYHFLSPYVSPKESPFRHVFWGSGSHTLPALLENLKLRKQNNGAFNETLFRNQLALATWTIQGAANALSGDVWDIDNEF

T1 sequence (Q62351 89-763 limits assumed): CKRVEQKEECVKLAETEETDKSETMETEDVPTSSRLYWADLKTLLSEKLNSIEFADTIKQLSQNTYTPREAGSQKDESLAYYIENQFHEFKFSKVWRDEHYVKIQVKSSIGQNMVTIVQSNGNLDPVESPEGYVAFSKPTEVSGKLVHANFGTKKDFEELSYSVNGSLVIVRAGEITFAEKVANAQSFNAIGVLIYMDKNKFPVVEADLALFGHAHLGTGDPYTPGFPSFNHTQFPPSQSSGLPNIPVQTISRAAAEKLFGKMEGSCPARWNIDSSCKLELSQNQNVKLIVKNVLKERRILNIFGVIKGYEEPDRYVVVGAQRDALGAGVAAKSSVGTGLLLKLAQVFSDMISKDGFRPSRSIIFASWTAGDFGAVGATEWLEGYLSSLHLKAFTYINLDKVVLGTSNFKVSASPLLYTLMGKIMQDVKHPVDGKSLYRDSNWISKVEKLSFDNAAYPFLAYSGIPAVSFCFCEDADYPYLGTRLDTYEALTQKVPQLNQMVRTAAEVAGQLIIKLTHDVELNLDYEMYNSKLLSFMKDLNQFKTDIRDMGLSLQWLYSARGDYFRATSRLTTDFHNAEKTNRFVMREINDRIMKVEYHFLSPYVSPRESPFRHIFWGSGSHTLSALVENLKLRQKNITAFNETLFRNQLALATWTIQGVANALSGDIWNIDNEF

Binder	A450 (recombinant mouse TfR-1)	A450 (recombinant human TfR-1)
Clone 8.31 (VNAR, VNAR on phage; Clone 8 framework) VNAR: ARVDQTPQTITKETGESLTINCVLRDSNCALPSTYWYRKKSGSTNEESISKGGRYVETVNSGSKSFSLRINDLTVEDSGTYRCKVIAQLISILRGCNKNKHDVYGDGTAVTVNA	0.075 A450	0.077 A450
Clone 8.51 (VNAR, VNAR on phage; Clone 8 framework) VNAR: ARVDQTPQTITKETGESLTINCVLRDSNCALPSTYWYRKKSGSTNEESISKGGRYVETVNSGSKSFSLRINDLTVEDSGTYRCKVIAQLSSDHPGCNYRKHDVYGDGTAVTVNA	0.065 A450	0.058 A450
Clone 8.47 (VNAR, VNAR on phage; Clone 8 framework) VNAR: ARVDQTPQTITKETGESLTINCVLRDSNCALPSTYWYRKKSGSTNEESISKGGRYVETVNSGSKSFSLRINDLTVEDSGTYRCKVQTTLSSILRGCNYRKHDVYGDGTAVTVNA	0.067 A450	0.072 A450
Clone 8.60 (VNAR, VNAR on phage; Clone 8 framework) VNAR: ARVDQTPQTITKETGESLTINCVLRDSNCALPSTYWYRKKSGSTNEESISKGGRYVETVNSGSKSFSLRINDLTVEDSGTYRCKVIAQLSSILLTCLYRKHDVYGDGTAVTVNA	0.063 A450	0.073 A450
Clone 8.59 (VNAR, VNAR on phage; Clone 8 framework) VNAR: ARVDQTPQTITKETGESLTINCVLRDSNCALPSTYWYRKKSGSTNEESISKGGRYVETVNSGSKSFSLRINDLTVEDSGTYRCKVIAQLSSHDHGCNYRKHDVYGDGTAVTVNA	0.063 A450	0.073 A450
Clone 8.57 (VNAR, VNAR on phage; Clone 8 framework) VNAR: ARVDQTPQTITKETGESLTINCVLRDSNCALPSTYWYRKKSGSTNEESISKGGRYVETVNSGSKSFSLRINDLTVEDSGTYRCKVIAQLGNLLRGCNYRKHDVYGDGTAVTVNA	0.063 A450	0.083 A450
Clone 8.50 (VNAR, VNAR on phage; Clone 8 framework) VNAR: ARVDQTPQTITKETGESLTINCVLRDSNCALPSTYWYRKKSGSTNEESISKGGRYVETVNSGSKSFSLRINDLTVEDSGTYRCKVIANLSSILRGCNYRKHDVYGDGTAVTVNA	0.065 A450	0.057 A450
Clone 8.62 (VNAR, VNAR on phage; Clone 8 framework) VNAR: ARVDQTPQTITKETGESLTINCVLRDSNCALPSTYWYRKKSGSTNEESISKGGRYVETVNSGSKSFSLRINDLTVEDSGTYRCKVIAQLSSILRGCNYAAGDVYGDGTAVTVNA	0.063 A450	0.056 A450
Clone 8.53 (VNAR, VNAR on phage; Clone 8 framework) VNAR: ARVDQTPQTITKETGESLTINCVLRDSNCALPSTYWYRKKSGSTNEESISKGGRYVETVNSGSKSFSLRINDLTVEDSGTYRCKVIAQLSSILRGCNYAWLDVYGDGTAVTVNA	0.065 A450	0.051 A450
Clone 8.34 (VNAR, VNAR on phage; Clone 8 framework) VNAR: ARVDQTPQTITKETGESLTINCVLRDSNCALPSTYWYRKKSGSTNEESISKGGRYVETVNSGSKSFSLRINDLTVEDSGTYRCKVIAQLSSILRGCNYIAYDVYGDGTAVTVNA	0.072 A450	0.078 A450
Clone 8.58 (VNAR, VNAR on phage; Clone 8 framework) VNAR: ARVDQTPQTITKETGESLTINCVLRDSNCALPSTYWYRKKSGSTNEESISKGGRYVETVNSGSKSFSLRINDLTVEDSGTYRCKVIAQLSSAGMGCNYRKHDVYGDGTAVTVNA	0.063 A450	0.059 A450
Clone 8.46 (VNAR, VNAR on phage; Clone 8 framework) VNAR: ARVDQTPQTITKETGESLTINCVLRDSNCALPSTYWYRKKSGSTNEESISKGGRYVETVNSGSKSFSLRINDLTVEDSGTYRCKVIAQLSSYVVGCNYRKHDVYGDGTAVTVNA	0.067 A450	0.056 A450
Clone 8.40 (VNAR, VNAR on phage; Clone 8 framework) VNAR: ARVDQTPQTITKETGESLTINCVLRDSNCALPSTYWYRKKSGSTNEESISKGGRYVETVNSGSKSFSLRINDLTVEDSGTYRCKVIAQLYVGLRGCNYRKHDVYGDGTAVTVNA	0.07 A450	0.066 A450
Clone 8.54 (VNAR, VNAR on phage; Clone 8 framework) VNAR: ARVDQTPQTITKETGESLTINCVLRDSNCALPSTYWYRKKSGSTNEESISKGGRYVETVNSGSKSFSLRINDLTVEDSGTYRCKVIASAVSILRGCNYRKHDVYGDGTAVTVNA	0.065 A450	0.072 A450
Clone 8.48 (VNAR, VNAR on phage; Clone 8 framework) VNAR: ARVDQTPQTITKETGESLTINCVLRDSNCALPSTYWYRKKSGSTNEESISKGGRYVETVNSGSKSFSLRINDLTVEDSGTYRCKVIAQLSSILRGCNYMMYDVYGDGTAVTVNA	0.066 A450	0.082 A450
Clone 8.44 (VNAR, VNAR on phage; Clone 8 framework) VNAR: ARVDQTPQTITKETGESLTINCVLRDSNCALPSTYWYRKKSGSTNEESISKGGRYVETVNSGSKSFSLRINDLTVEDSGTYRCKVIAQLSSILRGCNYLSMDVYGDGTAVTVNA	0.067 A450	0.056 A450

Binder	A450 (recombinant mouse TfR-1)	A450 (recombinant human TfR-1)
Clone 8.41 (VNAR, VNAR on phage; Clone 8 framework) VNAR: ARVDQTPQTITKETGESLTINCVLRDSNCALPSTYWYRKKSGSTNEESISKGGRYVETVNSGSKSFSLRINDLTVEDSGTYRCKVIAPQKSILRGCNYHKIDVYGDGTAVTVNA	0.068 A450	0.072 A450
Clone 8.39 (VNAR, VNAR on phage; Clone 8 framework) VNAR: ARVDQTPQTITKETGESLTINCVLRDSNCALPSTYWYRKKSGSTNEESISKGGRYVETVNSGSKSFSLRINDLTVEDSGTYRCKVIAQLSSILDDCEYRKHDVYGDGTAVTVNA	0.07 A450	0.063 A450
Clone 8.33 (VNAR, VNAR on phage; Clone 8 framework) VNAR: ARVDQTPQTITKETGESLTINCVLRDSNCALPSTYWYRKKSGSTNEESISKGGRYVETVNSGSKSFSLRINDLTVEDSGTYRCKVRDALSSILRGCNYRKHDVYGDGTAVTVNA	0.073 A450	0.09 A450
Clone 8.55 (VNAR, VNAR on phage; Clone 8 framework) VNAR: ARVDQTPQTITKETGESLTINCVLRDSNCALPSTYWYRKKSGSTNEESISKGGRYVETVNSGSKSFSLRINDLTVEDSGTYRCKVIAQLSSILFWCAYRKHDVYGDGTAVTVNA	0.064 A450	0.055 A450
Clone 8.38 (VNAR, VNAR on phage; Clone 8 framework) VNAR: ARVDQTPQTITKETGESLTINCVLRDSNCALPSTYWYRKKSGSTNEESISKGGRYVETVNSGSKSFSLRINDLTVEDSGTYRCKVIAQLVLNLRGCNYRKHDVYGDGTAVTVNA	0.071 A450	0.075 A450
Clone 8.45 (VNAR, VNAR on phage; Clone 8 framework) VNAR: ARVDQTPQTITKETGESLTINCVLRDSNCALPSTYWYRKKSGSTNEESISKGGRYVETVNSGSKSFSLRINDLTVEDSGTYRCKVIAQLSSILRGCNYNMEDVYGDGTAVTVNA	0.067 A450	0.06 A450
Clone 8.36 (VNAR, VNAR on phage; Clone 8 framework) VNAR: ARVDQTPQTITKETGESLTINCVLRDSNCALPSTYWYRKKSGSTNEESISKGGRYVETVNSGSKSFSLRINDLTVEDSGTYRCKVIAQLSSILRGCNYWRWDVYGDGTAVTVNA	0.071 A450	0.058 A450
Clone 8.35 (VNAR, VNAR on phage; Clone 8 framework) VNAR: ARVDQTPQTITKETGESLTINCVLRDSNCALPSTYWYRKKSGSTNEESISKGGRYVETVNSGSKSFSLRINDLTVEDSGTYRCKVIAELFSILRGCNYRKHDVYGDGTAVTVNA	0.071 A450	0.078 A450
Clone 8.32 (VNAR, VNAR on phage; Clone 8 framework) VNAR: ARVDQTPQTITKETGESLTINCVLRDSNCALPSTYWYRKKSGSTNEESISKGGRYVETVNSGSKSFSLRINDLTVEDSGTYRCKVIAQLSSIWKGCKYRKHDVYGDGTAVTVNA	0.074 A450	0.065 A450
Clone 8.37 (VNAR, VNAR on phage; Clone 8 framework) VNAR: ARVDQTPQTITKETGESLTINCVLRDSNCALPSTYWYRKKSGSTNEESISKGGRYVETVNSGSKSFSLRINDLTVEDSGTYRCKVIAQLSSQRWGCNYRKHDVYGDGTAVTVNA	0.071 A450	0.069 A450
Clone 8.52 (VNAR, VNAR on phage; Clone 8 framework) VNAR: ARVDQTPQTITKETGESLTINCVLRDSNCALPSTYWYRKKSGSTNEESISKGGRYVETVNSGSKSFSLRINDLTVEDSGTYRCKVIAQLSSILRGCDRWKHDVYGDGTAVTVNA	0.065 A450	0.049 A450
Clone 8.61 (VNAR, VNAR on phage; Clone 8 framework) VNAR: ARVDQTPQTITKETGESLTINCVLRDSNCALPSTYWYRKKSGSTNEESISKGGRYVETVNSGSKSFSLRINDLTVEDSGTYRCKVIAQLSSILQRCNYRKHDVYGDGTAVTVNA	0.063 A450	0.067 A450
Clone 8.43 (VNAR, VNAR on phage; Clone 8 framework) VNAR: ARVDQTPQTITKETGESLTINCVLRDSNCALPSTYWYRKKSGSTNEESISKGGRYVETVNSGSKSFSLRINDLTVEDSGTYRCKVIAQLSSILKPCWYRKHDVYGDGTAVTVNA	0.067 A450	0.093 A450
Clone 8.42 (VNAR, VNAR on phage; Clone 8 framework) VNAR: ARVDQTPQTITKETGESLTINCVLRDSNCALPSTYWYRKKSGSTNEESISKGGRYVETVNSGSKSFSLRINDLTVEDSGTYRCKVIAQLFIDLRGCNYRKHDVYGDGTAVTVNA	0.068 A450	0.062 A450
Clone 8.49 (VNAR, VNAR on phage; Clone 8 framework) VNAR: ARVDQTPQTITKETGESLTINCVLRDSNCALPSTYWYRKKSGSTNEESISKGGRYVETVNSGSKSFSLRINDLTVEDSGTYRCKVIAEMGSILRGCNYRKHDVYGDGTAVTVNA	0.065 A450	0.06 A450
Clone 8.56 (VNAR, VNAR on phage; Clone 8 framework) VNAR: ARVDQTPQTITKETGESLTINCVLRDSNCALPSTYWYRKKSGSTNEESISKGGRYVETVNSGSKSFSLRINDLTVEDSGTYRCKVIAQLSSILRGCTFDKHDVYGDGTAVTVNA	0.064 A450	0.051 A450
